The results in this text go back to publication doi:10.1101/2024.02.15.580443.

Like-named read-outs stand apart in the source and are kept apart here.

As usually defined, the stoichiometry N is a count of units in the complex or per binding partner.

Test [1] has as its target ComM from Legionella pneumophila (C-terminal His6-tag) (Legionella pneumophila Paris) (UniProt Q5ZXZ0). In words: cryo-EM structure.
The target is the same in test [2]. In words: cryo-EM structure. This is another data set of the same source.
Test [3] concerns the target RadA R301A mutant from Streptococcus pneumoniae (for biochemical assays) (Streptococcus pneumoniae (R800 derivative strain)) (UniProt Q8DRP0).
For test [4], the target named is RadA from Streptococcus pneumoniae (strep-tagged, for cryoEM) (Streptococcus pneumoniae) (UniProt Q8DRP0). The test can be described thus: cryo-EM structure.

Regarding “ComM from Legionella pneumophila (C-terminal His6-tag) (from UniProt Q5ZXZ0 1-503) (enzyme)”, the stoichiometry N in test [1] turned out to be 12; in test [2], 6.
In test [3], “RadA R301A mutant from Streptococcus pneumoniae (for biochemical assays) (from UniProt Q8DRP0 2-419) (enzyme)” returned a stoichiometry N of 6.
For the substance “RadA from Streptococcus pneumoniae (strep-tagged, for cryoEM) (from UniProt Q8DRP0 1-420) (enzyme)”, the stoichiometry N in test [4] worked out at 6.
